In this assay the target is HIV-1 BaL envelope (Env, gp120-gp41) on HIV-1 BaL pseudovirions (HIV-1 BaL, Env clone BaL.01) (UniProt Q2MKA9). As to the kind of experiment: two-color fluorescence correlation spectroscopy (FCS).

Turning to “mAb b12 (IgG), Alexa 647-labelled (antibody)”, the percent of mAb virion-bound (slower diffusion coefficient) is 42%.
